The data set concerns the molecule itself. The data set is described as follows: crystal structure; MicroED (electron diffraction in a cryo electron microscope, 200 kV) from 3D peptide crystals only a few hundred nanometers thick; self-association of the peptide in the crystal.

B1: hIAPP segment 19–29 S20G (19-SGNNFGAILSS-29) (peptide)
peptide: SGNNFGAILSS
notes: human islet amyloid polypeptide (hIAPP), residues 19-29, with the early onset familial mutation S20G; numbers count on: the mature protein (37-residue hormone); Forms 3D nanocrystals and fibrils; the number of chains in the assembly is open-ended; also called spine segment 19–29 S20G; source: synthetic peptide: GenScript, greater than 98% purity
Consider B1, for which the binding result is “binds”.

B2: hIAPP segment 15–25 WT (15-FLVHSSNNFGA-25) (peptide)
peptide: FLVHSSNNFGA
notes: human islet amyloid polypeptide (hIAPP), residues 15-25, wild type; numbers count on: the mature protein (37-residue hormone); Forms 3D nanocrystals and fibrils (striated ribbons); also called spine segment 15–25 WT; source: synthetic peptide: GenScript, greater than 98% purity
Turning to B2, the binding result is recorded as “binds”.
